Reference: PMC4439037, “Distinctive Structure of the EphA3/Ephrin-A5 Complex Reveals a Dual Mode of Eph Receptor Interaction for Ephrin-A5” (PLoS ONE, 2015)

B1: human ephrin-A5 receptor-binding domain (domain or fragment)
chain: KAVADRYAVYWNSSNPRFQRGDYHIDVCINDYLDVFCPHYEDSVPEDKTERYVLYMVNFDGYSACDHTSKGFKRWECNRPHSPNGPLKFSEKFQLFTPFSLGFEFRPGREYFYISSAIPDNGRRSCLKLKVFVRPTNSCMK
modifications: deglycosylated with PNGase F
notes: also called ephrin-A5 ligand
B2: human EphA3 ligand-binding domain (domain or fragment)
chain: EVNLLDSKTIQGELGWISYPSHGWEEISGVDEHYTPIRTYQVCNVMDHSQNNWLRTNWVPRNSAQKIYVELKFTLRDCNSIPLVLGTCKETFNLYYMESDDDHGVKFREHQFTKIDTIAADESFTQMDLGDRILKLNTEIREVGPVNKKGFYLAFQDVGACVALVSVRVYFK
notes: also called EphA3 LBD; EphA3 receptor; not shown: GST, N-terminal, cleaved; 10xHis, N-terminal, cleaved

Legend:
[1] = target: B2; assay: ITC; details: both partners purified
[2] = target: B1; assay: ITC; details: both partners purified

Row | Binder | Kd [1] | dH [2]
1 | B1 | 9 nM | 
2 | B2 |  | -2.15 kcal/mol
